# T1: human IL-13Rα2, biotinylated (human, UniProt Q14627 27-343, biotinylated (site not stated))
# T1 chain: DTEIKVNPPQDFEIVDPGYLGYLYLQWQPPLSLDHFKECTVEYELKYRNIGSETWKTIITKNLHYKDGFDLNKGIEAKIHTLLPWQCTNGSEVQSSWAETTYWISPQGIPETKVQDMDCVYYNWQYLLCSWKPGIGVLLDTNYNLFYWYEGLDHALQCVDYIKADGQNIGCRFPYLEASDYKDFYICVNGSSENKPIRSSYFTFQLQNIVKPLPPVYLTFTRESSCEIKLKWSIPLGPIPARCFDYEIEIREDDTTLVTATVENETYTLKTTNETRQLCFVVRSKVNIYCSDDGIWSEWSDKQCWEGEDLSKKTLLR
# Assays:
# [1] = target: human IL-13Rα1 ectodomain, biotinylated (human) (UniProt P78552); assay: SPR; equilibrium; conditions: ligand
# Sequence of human IL-13Rα1 ectodomain, biotinylated (human) (P78552 other isoform, or with tags, fused parts or gaps): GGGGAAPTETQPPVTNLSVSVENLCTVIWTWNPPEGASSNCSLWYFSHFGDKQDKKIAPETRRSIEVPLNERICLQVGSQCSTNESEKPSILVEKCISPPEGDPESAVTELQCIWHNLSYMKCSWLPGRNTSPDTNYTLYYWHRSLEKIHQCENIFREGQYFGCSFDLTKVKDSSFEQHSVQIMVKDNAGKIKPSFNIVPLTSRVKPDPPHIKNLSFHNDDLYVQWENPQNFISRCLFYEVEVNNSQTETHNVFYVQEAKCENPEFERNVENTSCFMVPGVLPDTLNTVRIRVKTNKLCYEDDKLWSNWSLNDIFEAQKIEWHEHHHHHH
# [2] = target: human IL-13Rα1 ectodomain, biotinylated (human) (UniProt P78552); assay: SPR; kinetic; conditions: ligand
# [3] = target: T1, human IL-13Rα2, biotinylated; assay: SPR; kinetic
molecule,measurement,setting,value
"IL-13 superkine D7 [L10A, V18F, R86K, D87K, K89R, L101I, K104R, R108K]",Kd,[1],4100 nM
"IL-13 variant B4 [R11S, V18I, R86K, D87G, T88S, K89M, L101Y, K104R, K105T]",Kd,[2],18 nM
"IL-13 superkine D7 [L10A, V18F, R86K, D87K, K89R, L101I, K104R, R108K] (ligand) PGPVPPSTAARELIEELFNITQNQKAPLCNGSMVWSINLTAGMYCAALESLINVSGCSAIEKTQRMLSGFCPHKVSAGQFSSLHVKKTRIEVAQFVKDLLIHLRKLFKEGQFNHHHHHH",Kd,[3],0.003 nM

# Reference: patent US20200095301A1 (published 2020)
